Experimental data: patent US20160304565A1 (US Dept. of Health and Human Services, published 2016)

Biological target: the molecule itself
Assay: gel filtration chromatography (self-association)

B1: E. coli-produced, properly folded RSV G0-dTM (67-298) protein of the RSV-A2 strain, C-terminal His6 tag (other)
chain: HKVTPTTAIIQDATSQIKNTTPTYLTQNPQLGISPSNPSEITSQITTILASTTPGVKSTLQSTTVKTKNTTTTQTQPSKPTTKQRQNKPPSKPNNDFHFEVFNFVPCSICSNNPTCWAICKRIPNKKPGKKTTTKPTKKPTLKTTKKDPKPQTTKSKEVPTTKPTEEPTINTTKTNIITTLLTSNTTGNPELTSQMETFHSTSSEGNPSPSQVSTTSEYPSQPSSPPNTPRQHHHHHH
notes: also called REG; bacterially produced RSV-A2 G
binding result: binds
